Data: the DeepSol protein solubility set

Test: soluble on expression in E. coli; label from the status in PepcDB or PDB records

Row | Sequence | soluble on expression in E. coli
1 | MGSDKIHHHHHHMGKVTIEPLSRLEGHGKVSITLDDAGKPTDVKLHITALRGFEQFVVGRPAEEVPRIVPRICGICQTPHHLASVKAVDAAWGAEVPSAAEKLRELMHLGNMMHSHALHFYYLAAPDFVLGPDSDPAARNIIGVIGAAPEVAKKAIAMRRVGQSIVETIGGRAIHPVTGVPGGVSKALSEEKRDELLNEIDEMIAYGQDGIALIKSLNEKYMDLAKTLGVIDTWYLGMVKDGKHNFYGDTLRFMSPDGKQTTDFKPSEYLDNIGEHVVGHNYVKYPYNKKVGYPDGLYRVGPLAMLNVCDSMPTPLAEEARKDFADTFGKPANQSLAYNHARLIELLASCERVKELLEDSEITSTDIKAEVEPKAGNGVGAIYAPRGTLFHNYETDDKGIVVKANMIVASTHNVPTMEKAIQQAAEVVFK | not soluble
2 | MASRLLRGVGALAAQALRAHGPRGAAVTRSMASGGGVPTDEEQATGLEREIMIAAQKGLDPYNMLPPKAASGTKEDPNLVPSISNKRIVGCICEEDNCTVIWFWLHKGESQRCPNCGTHYKLVPHQMAH | soluble
3 | MEINENPTSFKGFKILQLSDLHNKSFGNNNNRLVKKIIGENPDIIVMTGDMVNAKDNDFEVFINLAEQISKSFDVYYIVGNHEQDLNEDKRKILMDKLSEIGIRVLDNEKVTISRGAESINLYGLWFNLRYYKDLKNEYTKDVFFGTKQIQSILGDLDTDSYNILLTHNPLYADTYSNWGADLTLSGHIHGGMIRIPFVGGLLSPEREFFPEYDAGKYQVNGKILIVNRGLGNGDFGIRVFNPPEISVIMLSNLEHHHHHH | not soluble
4 | MNILYDERLDGPLPQVDKDGLLAELRLRLPDLELLHAAEDLRPYECDGLSAYRCTPLLVALPERIEQVQGLLALCHRLKVPVVARGAGTGLSGGALPLENGVLLVMARFRRILEIDPLGRFARVQPGVRNLAISQAAAPHGLYYAPDPSSQIACSIGGNVAENAGGVHCLKYGLTVHNLLQVDIVTLEGERLSLGSSALDSAGFDLLALFTGSEGLLGVVVEVTVRLLPRPPVAKVLLASFDDVESAGRAVADLIGAGIVPAGLEMMDNLSIRAAEDFIHAGYPVDAAAILLCELDGVEADVHEDCERVRELFEAAGATSVRQAQDEAERQRFWAGRKNAFPAVGRISPDYYCMDGSIPRRELPRVLHGIAELSREYGLRVANVFHAGDGNMHPLILFDANLAGELERAEALGGRILELCVAVGGSITGEHGVGREKINQMCAQFNADELTLFHAVKAAFDPAGLLNPGKNVPTLHRCAEFGAMHVHHGRLPFPELERF | not soluble
5 | MSDKRETRIKSVQNLAPVYNVRDDAKTRRRVALTQMLGRAYNQFNAGDDAAAEKLLEEVLRQDRSSIDAWTLRATIYSKRGDVVHSGEYYRKAAQLAPQRGDVLNNYGAWLCANGYPAEALVWFERAMADPAYGEQPGTLANSGGCALQAGQRDRADHDLRRALELDPSNAYALESMARNEYDKHRYFEARAFSERRLATTVPATASVLKLAIQIEQELGDRAAASRYQQRLVKEFPETVAVEPRG | soluble
6 | MGHHHHHHSHMKVVLSLGGSVLSNESEKIREFAKTIESVAQQNQVFVVVGGGKLAREYIKRARELGASETFCDYIGIAATRLNAMLLISAIPSAAKKVPVDFMEAEELSKLYRVVVMGGTFPGHTTDATAALLAEFIKADVFINATNVDGVYSADPKSDTSAVKYDRLSPQQLVEIVSRSSAKAGTNVVIDLLAAKIIERSKIKTYVIL | soluble
7 | MKKFDVAIVGGGLAGLTASIYLAKAGRKVIVLEKSSRFGGRGMTINKNGICMNLGAHALYRGGAAFLTFNELGMNLPGGIPSTKAHGIWKGDIFTIPTDFRSILSTPLLSWSAKVQFSRLMILLGNLDVGEVPKMSLTTWAEHEIKDPMVRNIFYALCRTTTYTFAPTIQLASSVLKQIQLSIKEGVFYVDGGWETIITKLRDIANHVGVQFLSKKHVLEIEHYEDKQRIYCFDDEVFEVGTVIVTTPPKEACNIIKGAEGTSLQRWSEQSIPVTVTALDIGLRRLPNPTHQFALGLDQPIFFTNQSRAAKLSDDGSIAVSLIKYQNPALEMKHIHEDKGQLESTMDLLHPNWKREVVAQQYLPTIKVVYDFPHINRVETPGPNIPEMPGVYVAGDWAGHDEILADAAVASGKRAALHILKQLESEAVHHGNGAIILEHHHHHH | not soluble
8 | MENVSDDRFAEMVWEAVSGGATLKDVHGIPQDMMEGLYAHAYDFYHKGRLDEAETFFRFLCIYDFYNPDYIMGLAAVCQLKKQFQKAVDLYAVAFALSKNDYRPVFFTGQCQLFMRKAAKARQCFELVCEQSGLEHHHHHH | not soluble
9 | SELPPEPQANGEAVGAGGGPIYYIYEEEEEEEEEEEEPPPEPPKLVNDKPHKFKDHFFKKPKFCDVCARMIVLNNKFGLRCKNCKTNIHEHCQSYVEMQRCFGKIPPGFHRAYSSPLYSNQQYACVKDLSAANRNDPVFETLRTGVIMANKERKKGQADKKNPVAAMMEEEPESARPEEGKPQDGNPEGDKKAEKKTPDDKHKQPGFQQSHYFVALYRFKALEKDDLDFPPGEKITVIDDSNEEWWRGKIGEKVGFFPPNFIIRVRAGERVHRVTRSFVGNREIGQITLKKDQIVVQKGDEAGGYVKVYTGRKVGLFPTDFLEEI | soluble
10 | MGHHHHHHSHYHVYWLEMVLFYRAHFGTDETILDGKEYDIYVSYARNAEEEEFVLLTLRGVLENEFGYKLCIFDRDSLPGGIVTDETLSFIQKSRRLLVVLSPNYVLQGTQALLELKAGLENMASRGNINVILVQYKAVKETKVKELKRAKTVLTVIKWKGEKSKYPQGRFWKQLQVAMPVKKSPRRSSS | soluble
11 | MENQPKLNSSKEVIAFLAERFPQCFSAEGEARPLKIGIFQDLVERVGGEMNLSKTQLRAALRLYTSSWRYLYGVKAGAIRVDLDGNPCGELEEQHIAHARQQLEEAKARVQAQRAAQQAKKREAAAAAGQQDEGVRRERKPRPQQPRRKEGAEQRKPRPVAAKAPREERLTPVSDVSVLTVGQALKVKAGNNAMDATVLEITKDGVRVQLTSGMSMIVRAEHLVF | not soluble
12 | MSLRVTDFSFELPESLIAHYPMPERSSCRLLSLDGPTGALTHGTFTDLLDKLNPGDLLVFNNTRVIPARLFGRKASGGKIEVLVERMLDDKRILAHIRASKAPKPGAELLLGDDESINATMTARHGALFEVEFNDERSVLDILNSIGHMPLPPYIDRPDEDADRELYQTVYSEKPGAVAAPTAGLHFDEPLLEKLRAKGVEMAFVTLHVGAGTFQPVRVDTIEDHIMHSEYAEVPQDVVDAVLAAKARGNRVIAVGTTSVRSLESAAQAAKNDLIEPFFDDTQIFIYPGFQYKVVDALVTNFHLPESTLIMLVSAFAGYQHTMNAYKAAVEEKYRFFSYGDAMFITYNPQAINERVGEEGGSHHHHHH | soluble
13 | MGGGHFAASNALKTAFLQKDPQAKVEIVDTLKIISPILDKLAVGTYLKAIKTVPFIYGLVYDSTDKDPPTRFSKAIYEKFYFAFYKLYNIISELNPDVIIGTHPSPIDMVSQLKKRGNINVPIISIVTDFTIHPYWINEYADYIIVHHENLVYEAVKKGAPGKKVIPLGIPLEHHHHHH | not soluble
14 | MGSDKIHHHHHHQSTGQVTLGVLTDMSSVYADSAGKGSVAAVQLAIEDVGGKALGQPVKLVSADYQMKTDVALSIAREWFDRDGVDAIFDVVNSGTALAINNLVKDKKKLAFITAAAADQIGGTECNGYGIGFLYNFTSIVKTVVQAQLAKGYKTWFLMLPDAAYGDLMNAAIRRELTAGGGQIVGSVRFPFETQDFSSYLLQAKASGAQLIVSTSGGAANINIMKQAREFGLPSKTQKVGGMIDILTDVKSAGLRVMQGQEYATSFYWNMDDRTRAFAKRFYAKMGKMPTNNQAGGYSAALQYLKAVNAIGSKDPQKVFAYLKTIKFDDAVTRHGTLRPGGRLVRDMYLVRAKKPEDQKGDWDYYDVVATIGPEQAFGPLSESRCAMDK | not soluble
15 | MVNEYKKILLLKGFELMDDYHFTSIKSLLAYDLGLTTKMQEEYNRIKITDLMEKKFQGVACLDKLIELAKDMPSLKNLVNNLRKEKSKVAKKIKTQEKAPVKKINQEEVGLAAPAPTARNKLTSEARGRIPVAQKRKTPNKEKTEAKRNKVSQEQSKPPGPSGASTSAAVDHPPLPQTSSSTPSNTSFTPNQETQAQRQVDARRNVPQNDPVTVVVLKATAPFKYESPENGKSTMFHATVASKTQYFHVKVFDINLKEKFVRKKVITISDYSECKGVMEIKEASSVSDFNQNFEVPNRIIEIANKTPKISQLYKQASGTMVYGLFMLQKKSVHKKNTIYEIQDNTGSMDVVGSGKWHNIKCEKGDKLRLFCLQLRTVDRKLKLVCGSHSFIKVIKAKKNKEGPMNVN | soluble
16 | MGSDKIHHHHHHMFISDVHLGSKAAKADFLIDFLRYHDADIIYLVGDIVDGWRLRRSWHWPQSHNDVVQKLLRKARKGASITYIAGNHDEFARQFQGVHFGGIVVADRAIHETADGKRLLVIHGDQFDTVVHNQRWLAYLGDHAYDAAMIVNRVVTRLRQLLGLPYWSFSSWAKVKVKKAVNFIGSFQTVLTEEARRSHVDGVICGHIHHAAIENFDDVRYINTGDWVESCTAVVEHFDGRMEILTWAQVLPESFDEPFIPMLIEDRVGQAA | not soluble
17 | SDIELIHCGADLVERMMNDIRQAASSVHMMFFIMKNDEVSHNMYTLLKTKAQAGVSVYLLLDWAGCRAIKKTALQTMKNAGVHVHVMNRPRFPFFFFHMQKRNHRKITVIDGKIGYIGGFNIAEEYLGKKAKFGNWEDYHLRMIGEGVHDLQTLFASDLKRNTGIELGSDVWPKLQQGTISHKIYATDGYSLENIYLANIAQAKNRLTVCTPYYIPSKPLQEALINARKNGVSVRIIVPMKSDHPLVREAAFTYYSELLDAGCLIYRYYQGFYHVKALIIDDHLSIIGTANFDKRSLFLNEEVNVEIDDEAFTSEVYATIEEDMKKSELLTMEDFSKRTFRQRPAEWLGR | not soluble
18 | MSAPINKVLIADDIEQECVDILKQNGIEVTVKTKQTKDELLVTLPQHDAVIVRSATKITAELLAASAGKLKLVGRAGTGVDNIDVPAASANKILVMNTPQANSRSAAELTCTLILSLSRHVPQAAASMKAGKWARKDFMGEEVYGRTLAVLGLGRIGSEVAVRLQAFGMKVIGFDPMVTKEQAEAKNIELLSLEQIWPQADYITVHVPLIKQTENLINKETLAKCKKGVRIINVARGGIVNEVDLVESLNAGHAKGAAFDVFEQEPPTFRELIDHPLVIATPHLGASTIDAQLRVASEIADNIVQYNKGTMLGVLNAREVLN | not soluble
19 | MQMLIPQRLLLILNPILMMKRKKRKKRKKRRERETMMKIPRILKKLRRKRRTRRKRRKRRKRRRRKRRKRRRKRSPRKRRKRRNKDAFYILIISDPSRSLLFGFRKFSIIIQCLTYFSFHILFHNL | soluble
20 | SLKIKQIVKPGLAVLAAGVLSACATKSNVKADGTTDNPVFPKPYSVTLDNNRGTFPTYDELDLMRPGLTKDDIYKILGRPHYDEGMYGVREWDYLFHFHTPGVGIDPENTSGVEGITTCQYKIIFDKDKFARSFYWNPVFPKDAACPPPAPKAEPQVIIREIVPAKPKRIRQ | soluble
21 | MTEQQKFKVLADQIKISNQLDAEILNSGELTRIDVSNKNRTWEFHITLPQFLAHEDYLLFINAIEQEFKDIANVTCRFTVTNGTNQDEHAIKYFGHCIDQTALSPKVKGQLKQKKLIMSGKVLKVMVSNDIERNHFDKACNGSLIKAFRNCGFDI | not soluble
22 | MGSDKIHHHHHHMLNLTPSAISQSIQKLRVIFPDPLFIRKGQGVTPTAFAMHLHEYISQGLESILGALDIEGSYDKQRTITIATTPSVGALVLPVIYRAIKTHYPQLLLRNPPISDAENQLSQFQTDLIIDNMFCTNRTVQHHVLFTDNMVLICREGNPLLSLEDDRETIDNAAHVLLLPEEQNFSGLRQRVQEMFPDRQINFTSYNILTIAALVANSDMLAIIPSRFYNLFSRCWPLEKLPFPSLNEEQIDFSIHYNKFSLRDPILHGVIDVIRNAF | not soluble
